# Changes are numbered by the printed parent chain. Values joined by “and” are separate entries in the source; they are usually repeats but may differ in a detail not shown here. Equal values may be shown once. Read-outs that look alike come from different tables or passages of the source.
# T1: human CD16b (NA1), full length, on FlpinCHO cells (human, UniProt O75015 17-200)
# T1 construct: also called FlpinCHO-human CD16b (NA1)
# T1 chain: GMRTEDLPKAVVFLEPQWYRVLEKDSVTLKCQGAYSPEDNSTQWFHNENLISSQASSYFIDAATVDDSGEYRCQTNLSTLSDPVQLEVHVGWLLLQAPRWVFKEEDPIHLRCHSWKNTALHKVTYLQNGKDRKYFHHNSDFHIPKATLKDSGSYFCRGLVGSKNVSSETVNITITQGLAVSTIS
# T2: human CD16b (NA2), full length, on FlpinCHO cells (human, UniProt O75015 17-200)
# T2 construct: also called FlpinCHO-human CD16b (NA2)
# T2 chain: T1 chain with R20S, N49S, D66N, V90I
# B1: P2C47 scFv-hFc (Fc fusion)
# chain: SYVLTQPSSVSVAPGQTATISCGGHNIGSKNVHWYQQRPGQSPVLVIYQDNKRPSGIPERFSGSNSGNTATLTISGTQAMDEADYYCQVWDNYSVLFGGGTKLTVLGGGGSGGGGSGGGGSQVQLVQSGAEVKKPGESLKVSCKASGYTFTSYYMHWVRQAPGQGLEWMGAIEPMYGSTSYAQKFQGRVTMTRDTSTSTVYMELSSLRSEDTAVYYCARGSAYYYDFADYWGQGTLVTVSSEPKSSDKTHTCPPCPAPEEFGGPSVFLFPPKPKDTLMISRTPEVTCVVVAVSHEDPEVKFNWYVDGVEVHNAKTKPREEQYNSTYRVVSVLTVLHQDWLNGKEYKCKVSNKALPAPIEKTISKAKGQPREPQVYTLPPSREEMTKNQVSLTCLVKGFYPSDIAVEWESNGQPENNYKTTPPVLDSDGSFFLYSKLTVDKSRWQQGNVFSCSVMHEALHNHYTQKSLSLSPGK
# notes: also called control antibody P2C47
# B2: 3G8 antibody as used to check the stably transfected cell lines (Example 1.3) (antibody, V domains shown)
# VH: QVTLKESGPGILQPSQTLSLTCSFSGFSLRTSGMGVGWIRQPSGKGLEWLAHIWWDDDKRYNPALKSRLTISKDTSSNQVFLKIASVDTADTATYYCAQINPAWFAYWGQGTLVTVSA
# VL: DTVLTQSPASLAVSLGQRATISCKASQSVDFDGDSFMNWYQQKPGQPPKLLIYTTSNLESGIPARFSASGSGTDFTLNIHPVEEEDTATYYCQQSNEDPYTFGGGTKLEIK
# notes: also called CD16 antibody
# Legend:
# [1] = target: T3, human CD16a (158F), full length, on FlpinCHO cells (human, UniProt P08637 17-254); assay: FACS on FlpinCHO cells
# In short: (§1)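 EC50 comes from fitted concentration–MFI curves. Antibody dilutions were bound to the cells for 1 hour on ice in PBS blocking buffer with 2% BSA, followed by washing and flow cytometric readout.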
# [2] = target: T4, human CD16a (158V), full length, on cells (human, UniProt P08637 17-254); assay: FACS on FlpinCHO cells
# T4 construct: also used as target for the bought Jurkat-NFAT reporter line stably expressing human CD16a (158V); also called FlpinCHO-human CD16a (158V); FlpinCHO-CD16a (158V)
# In short: as §1
# [3] = target: T1, human CD16b (NA1), full length, on …; assay: FACS on FlpinCHO cells
# In short: (§2)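 EC50 values come from fitted MFI curves measured by FACS. Antibody dilutions were bound for 1 hour on ice to CD16b-transfected FlpinCHO cells suspended in PBS with 2% BSA blocking solution.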
# [4] = target: T2, human CD16b (NA2), full length, on …; assay: FACS on FlpinCHO cells
# In short: as §2
# [5] = target: T5, CD16 on primary human NK cells (human, UniProt P08637 17-254); assay: FACS on human NK cells
# T5 construct: whole, on cells; also called resting NK cells
# In short: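 EC50 came from curve fitting of flow-cytometric MFI. Antibody titrations were bound for 1 hour on ice to fresh human NK cells blocked in PBS with 2% (w/w) BSA (2×10⁶ cells/ml), followed by five PBS washes before acquisition.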
# [6] = target: T6, cynomolgus monkey CD16, full length, on FlpinCHO cells (cynomolgus monkey, UniProt Q8SPW2 17-254); assay: FACS on FlpinCHO cells
# T6 construct: also called FlpinCHO-cyno CD16; Flipin CHO-cyno CD16
# T6 sequence (Q8SPW2 other isoform, or with tags, fused parts or gaps limits assumed): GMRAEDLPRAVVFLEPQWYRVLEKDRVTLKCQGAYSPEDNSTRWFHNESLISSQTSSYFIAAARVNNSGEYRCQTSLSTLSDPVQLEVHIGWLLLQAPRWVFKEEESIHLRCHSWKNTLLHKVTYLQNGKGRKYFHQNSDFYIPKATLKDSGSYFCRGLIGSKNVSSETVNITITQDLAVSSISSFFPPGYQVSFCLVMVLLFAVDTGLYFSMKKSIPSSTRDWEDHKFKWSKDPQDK
# Experimental: The required cells were scale-up cultured in a T-75 cell culture flask to the logarithmic growth phase. The medium was aspirated, and the cells were washed twice with a PBS buffer and then digested with trypsin. After the digestion was terminated, the cells were washed twice with the PBS buffer. The cells were counted, and then the cell pellet was resuspended with a [PBS+2% (w/w) BSA] blocking solution to 2×10⁶ cells/ml, and added to a 96-well FACS reaction plate at 50 μl/well. […] 50 μl/well of the antibody to be detected was added at different concentrations, and incubated on ice for 1 hour. […] The mixture was centrifuged and washed 5 times with PBS, and FACS (FACS Canto II, purchased from BD Company) was used for detection and result analysis. Data analysis was performed by software (CellQuest) to obtain the mean fluorescence intensity (MFI) of the cells. Then, software (GraphPad Prism8) was used for analysis, data fitting and EC50 value calculation.
# Flipin CHO-cyno CD16 cells were subjected to FACS detection and data analysis according to the method of Example 3.1.
# [7] = target: T4, human CD16a (158V), full length, on …; assay: cell-based or functional assay
# [8] = target: T3, human CD16a (158F), full length, on …; assay: FACS on FlpinCHO cells; remark: listed apart in the source
# [9] = target: T4, human CD16a (158V), full length, on …; assay: FACS on FlpinCHO cells; remark: listed apart in the source
# [10] = target: T1, human CD16b (NA1), full length, on …; assay: FACS on FlpinCHO cells
# In short: as §2
# [11] = target: T2, human CD16b (NA2), full length, on …; assay: FACS on FlpinCHO cells
# In short: as §2
# [12] = target: T6, cynomolgus monkey CD16, full length, on …; assay: FACS on FlpinCHO cells; remark: listed apart in the source
# In short: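 FlpinCHO cells expressing full-length cynomolgus CD16, blocked in PBS/2% BSA at 2×10⁶ cells/ml, incubated with antibody at various concentrations 1 h on ice. Flow cytometry MFI fitted to give EC50.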
# [13] = target: T4, human CD16a (158V), full length, on …; assay: cell-based or functional assay; remark: listed apart in the source
# [14] = target: T3, human CD16a (158F), full length, on …; assay: FACS, biotinylated antibody
# [15] = target: T4, human CD16a (158V), full length, on …; assay: FACS, biotinylated antibody
# [16] = target: T5, CD16 on primary human NK cells; assay: FACS on human NK cells, biotinylated antibody
# [17] = target: T5, CD16 on primary human NK cells; assay: FACS on human NK cells, biotinylated antibody; remark: listed apart in the source
# [18] = target: T3, human CD16a (158F), full length, on …; assay: FACS, biotinylated antibody, +10 mg/mL human immunoglobulin
# [19] = target: T4, human CD16a (158V), full length, on …; assay: as above
# [20] = target: T5, CD16 on primary human NK cells; assay: FACS on human NK cells, biotinylated antibody, +10 mg/mL human immunoglobulin
# [21] = target: T5, CD16 on primary human NK cells; assay: as above; remark: listed apart in the source
# [22] = target: T3, human CD16a (158F), full length, on …; assay: FACS on FlpinCHO cells; remark: listed apart in the source
# [23] = target: T4, human CD16a (158V), full length, on …; assay: FACS on FlpinCHO cells; remark: listed apart in the source
# [24] = target: T1, human CD16b (NA1), full length, on …; assay: FACS on FlpinCHO cells
# [25] = target: T2, human CD16b (NA2), full length, on …; assay: FACS on FlpinCHO cells
# [26] = target: T6, cynomolgus monkey CD16, full length, on …; assay: FACS on FlpinCHO cells; remark: listed apart in the source
binder,measurement,setting,value
B1,EC50,[1],620 pM and 980 pM
same,EC50,[2],850 pM and 1030 pM
same,EC50,[3],3180 pM and 5500 pM
same,EC50,[4],14200 pM and 5120 pM
same,EC50,[5],840 pM
same,Maximum mean fluorescence intensity,[5],2540
same,EC50,[6],580 pM
same,Maximum mean fluorescence intensity,[6],29200
same,"EC50, activation activity for Jurkat cell",[7],40 pM
same,Maximum fluorescence value,[7],158000
same,EC50,[8],560 pM
same,Maximum mean fluorescence intensity,[8],9400
same,EC50,[9],540 pM
same,Maximum mean fluorescence intensity,[9],8800
same,EC50,[10],3360 pM
same,Maximum mean fluorescence intensity,[10],43600
same,Maximum mean fluorescence intensity,[11],63400
same,EC50,[12],620 pM
same,Maximum mean fluorescence intensity,[12],20100
same,"EC50, activation activity for Jurkat cell",[13],60 pM
same,Maximum fluorescence value,[13],149000
same,EC50,[14],410 pM and 390 pM
same,EC50,[15],580 pM and 770 pM
same,EC50,[16],1330 pM
same,Maximum mean fluorescence intensity,[16],33000
same,EC50,[17],990 pM
same,Maximum mean fluorescence intensity,[17],30100
same,EC50,[18],2970 pM and 2630 pM
same,EC50,[19],3320 pM and 2870 pM
same,EC50,[20],5400 pM
same,Maximum mean fluorescence intensity,[20],30900
same,EC50,[21],4300 pM
same,Maximum mean fluorescence intensity,[21],28000
B2,Mean fluorescence intensity,[22],3080
same,Mean fluorescence intensity,[23],5870
same,Mean fluorescence intensity,[24],28100
same,Mean fluorescence intensity,[25],24800
same,Mean fluorescence intensity,[26],5500
